Results as given in article PMC8294390 (2021).

Molecular target: T1, TNFR1 (Homo sapiens, UniProt P19438)
T1 chain: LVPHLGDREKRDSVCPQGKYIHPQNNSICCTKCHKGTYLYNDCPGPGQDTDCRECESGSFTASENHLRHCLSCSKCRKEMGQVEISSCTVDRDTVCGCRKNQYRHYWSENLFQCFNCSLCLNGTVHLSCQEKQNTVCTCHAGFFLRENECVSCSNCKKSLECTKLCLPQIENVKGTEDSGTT
Test: SPR

Kd: 5.01 nM
B1: Atrosimab (antibody)
chain 1: HVQLVQSGAEVKKPGSSVKVSCKASGYTFTDFYINWVRQAPGQGLEWIGEIVPSQGEAKYNDKFKARVTITADKSTSTAYMELSSLRSEDTAVYYCARWDFLDYWGQGTTVTVSSGTGGGSGPSVFLFPPKPKDTLMISRTPEVTCVVVDVSHEDPEVKFNWYVDGVEVHNAKTKPREEQYNSTYRVVSVLTVLHQDWLNGKEYKCKVSNKGLPSSIEKTISKAKGQPREPSVFIFPPSDEQLKSGTASVVCLVNNFYPRDIAVEWEVDNALQSGNSQESVTEQDSKDSTYSLSSTLTLSKADYEKHKVYSCSVMHEALHNHYTQKSFNRGEC
chain 2: DVQMTQSPSSLSASVGDRVTITCRSSQSLLHSNGNTYLHWYQQKPGKAPKLLIYTVSNRFSGVPSRFSGSGSGTDFTLTISSLQPEDFATYYCSQSTHVPYTFGGGTKVEIKGTGGGSGPSVFLFPPKPKDTLMISRTPEVTCVVVDVSHEDPEVKFNWYVDGVEVHNAKTKPREEQYNSTYRVVSVLTVLHQDWLNGKEYKCKVSNKGLPSSIEKTISKAKGQPREPSVFPLAPSSKSTSGGTAALGCLVKDYFPSDIAVEWESGALTSGVHTFPAVLQSSGLYSLSSVVTVPSSSLGTQTYSCSVMHEALHNHYTQKSVEPKSC
